Laboratory results taken from publication PMC12809078, “CtBP1/2 oligomerization promotes G9a-Mediated transcriptional repression” (The Journal of Biological Chemistry, 2025).

T1: His6-MBP-G9a^641-1193 (WT) (human, UniProt Q96KQ7 641-1193)
T1 construct: G9a (EHMT2), human, residues 641-1193 (ANK, Pre-SET and SET domains); also called WT G9a; source: E. coli, purified
T1 sequence (looked up): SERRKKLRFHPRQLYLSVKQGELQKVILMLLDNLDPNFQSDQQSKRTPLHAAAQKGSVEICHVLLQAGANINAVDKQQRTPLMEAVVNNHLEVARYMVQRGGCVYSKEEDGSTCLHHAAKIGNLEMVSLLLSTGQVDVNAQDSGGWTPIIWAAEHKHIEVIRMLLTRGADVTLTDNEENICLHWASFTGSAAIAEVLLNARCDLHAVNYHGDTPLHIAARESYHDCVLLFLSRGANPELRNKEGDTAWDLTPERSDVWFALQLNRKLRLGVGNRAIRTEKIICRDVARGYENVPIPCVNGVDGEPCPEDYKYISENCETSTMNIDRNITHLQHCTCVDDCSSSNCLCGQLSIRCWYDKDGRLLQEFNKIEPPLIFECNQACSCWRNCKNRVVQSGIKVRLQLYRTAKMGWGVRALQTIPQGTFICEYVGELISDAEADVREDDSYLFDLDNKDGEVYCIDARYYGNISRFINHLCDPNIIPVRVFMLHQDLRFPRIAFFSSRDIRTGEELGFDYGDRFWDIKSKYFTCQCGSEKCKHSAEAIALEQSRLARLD

B1: full-length SUMO-CtBP2 (natural protein)
chain: not shown
notes: Named SUMO-CtBP2 in the pull-downs; also called SUMO-CtBP2-FL; CtBP2-FL; source: E. coli Rosetta 2 (DE3), purified (Ni-NTA); not shown: SUMO, N-terminal, kept
B2: SUMO-G9a^881–913-FLAG P892E (domain or fragment, human, UniProt Q96KQ7 881-913, looked up)
chain: NKEGDTAWDLTEERSDVWFALQLNRKLRLGVGN
notes: source: E. coli Rosetta 2 (DE3), purified; not shown: SUMO, N-terminal, kept; FLAG, C-terminal, kept
B3: SUMO-G9a^881–913-FLAG T891R (domain or fragment, human, UniProt Q96KQ7 881-913, looked up)
chain: NKEGDTAWDLRPERSDVWFALQLNRKLRLGVGN
notes: as for B2
B4: SUMO-G9a^881–1210-FLAG (domain or fragment, human, UniProt Q96KQ7 881-1210, looked up)
chain: NKEGDTAWDLTPERSDVWFALQLNRKLRLGVGNRAIRTEKIICRDVARGYENVPIPCVNGVDGEPCPEDYKYISENCETSTMNIDRNITHLQHCTCVDDCSSSNCLCGQLSIRCWYDKDGRLLQEFNKIEPPLIFECNQACSCWRNCKNRVVQSGIKVRLQLYRTAKMGWGVRALQTIPQGTFICEYVGELISDAEADVREDDSYLFDLDNKDGEVYCIDARYYGNISRFINHLCDPNIIPVRVFMLHQDLRFPRIAFFSSRDIRTGEELGFDYGDRFWDIKSKYFTCQCGSEKCKHSAEAIALEQSRLARLDPHPELLPELGSLPPVNT
notes: G9a (EHMT2), human, residues 881-1210; also called CD; G9a C-terminal catalytic domain; not shown: SUMO, N-terminal, kept; FLAG, C-terminal, kept
B5: SUMO-G9a (881–913)-FLAG (domain or fragment, human, UniProt Q96KQ7 881-913, looked up)
chain: NKEGDTAWDLTPERSDVWFALQLNRKLRLGVGN
notes: also called Pre-SET fragment; G9a Pre-SET domain; not shown: SUMO, N-terminal, kept; FLAG, C-terminal, kept

Experiments:
Conditions in all cases: both partners purified
[1] = target: T1, His6-MBP-G9a^641-1193 (WT); assay: pull-down; MBP pull-down of His6-MBP-G9a(641-1193) WT or Δ885–893 with full-length CtBP2; same procedure as the FLAG pull-down with the respective affinity resin
full-length SUMO-CtBP2 = target: B1; assay: pull-down; FLAG-tagged G9a (or GLP) fragments immobilised on anti-FLAG resin, incubated with CtBP protein 2 h at 4 °C; 50 mM Tris-HCl pH 8.0, 150 mM NaCl, 2 mM DTT, 0.1% NP-40; eluted with FLAG peptide, SDS-PAGE
CtBP2 (residues 31–364) = target: T2, CtBP2 (residues 31–364) (human, UniProt P56545 31-364); assay: as above
T2 construct: Tag-free by the methods; source: E. coli Rosetta 2 (DE3), purified (Ni-NTA, SUMO protease, SEC; ion exchange and gel filtration for crystals); not shown: His6, N-terminal, cleaved; SUMO, N-terminal, cleaved

full-length SUMO-CtBP1 = full-length SUMO-CtBP1 (human, UniProt Q13363 1-440); assay: as above

Row | Binder | binding result [1] | binding result (full-length SUMO-CtBP2) | binding result (CtBP2 (residues 31–364)) | binding result (full-length SUMO-CtBP1)
1 | B1 | binds |  |  | 
2 | B2 |  | binds |  | 
3 | B3 |  | binds |  | 
4 | B4 |  | binds |  | 
5 | B5 |  | binds | binds | binds
